From patent publication US20200277355A1
Like-named read-outs stand apart in the source and are kept apart here.

Assays:
TNFR1 [1] = molecular target: T1, TNFR1
T1 chain: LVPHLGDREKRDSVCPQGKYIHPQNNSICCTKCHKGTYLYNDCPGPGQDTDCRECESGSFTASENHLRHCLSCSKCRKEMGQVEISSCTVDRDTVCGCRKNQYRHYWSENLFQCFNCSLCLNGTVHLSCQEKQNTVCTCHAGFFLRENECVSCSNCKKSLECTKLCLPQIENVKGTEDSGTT

TNFR1 [2] = molecular target: T1, TNFR1; test: SPR (BIAcore), TNFR1 on CM-5 chip, peptide injected
TNFR1 [3] = molecular target: T1, TNFR1
TNFR1 [4] = molecular target: T1, TNFR1

DEQHLETELH (modifications not checked) [selective TNFR1 antagonist peptide Hydrostatin-SN10]
Kd (TNFR1 [1]): 2.8 µM
Kd (TNFR1 [2]): 2.8 µM
Kd (TNFR1 [3]): 2.77 µM
Kd (TNFR1 [4]): 2.83 µM
